Test results as given in US11999805.

Legend:
SpyCas9 (S. pyogenes) = SpyCas9 (S. pyogenes) (UniProt Q99ZW2); assay: cell-based or functional assay
50-2-13 = test system: T1, 50-2-13
T1 sequence: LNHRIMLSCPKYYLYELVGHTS

50-2-16 = test system: T2, 50-2-16
T2 sequence: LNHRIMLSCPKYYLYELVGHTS

50-20-14 = test system: T3, 50-20-14
T3 sequence: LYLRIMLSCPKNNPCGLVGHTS

60-1-10 = test system: T4, 60-1-10
T4 sequence: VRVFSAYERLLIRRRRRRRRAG

60-1-56 = test system: T5, 60-1-56
T5 sequence: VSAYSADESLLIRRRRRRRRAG

63-2-27 = test system: T6, 63-2-27
T6 sequence: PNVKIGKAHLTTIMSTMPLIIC

63-2-87 = test system: T7, 63-2-87
T7 sequence: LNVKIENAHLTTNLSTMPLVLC

82-2-12 = test system: T8, 82-2-12
T8 sequence: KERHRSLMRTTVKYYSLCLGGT

82-2-21 = test system: T9, 82-2-21
T9 sequence: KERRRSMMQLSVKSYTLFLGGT

82-2-28 = test system: T10, 82-2-28
T10 sequence: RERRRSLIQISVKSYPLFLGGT

90-1-18 = test system: T11, 90-1-18
T11 sequence: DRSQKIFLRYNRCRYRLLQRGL

90-1-27 = test system: T12, 90-1-27
T12 sequence: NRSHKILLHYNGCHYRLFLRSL

90-1-50 = test system: T13, 90-1-50
T13 sequence: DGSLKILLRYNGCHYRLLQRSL

90-2-18 = test system: T14, 90-2-18
T14 sequence: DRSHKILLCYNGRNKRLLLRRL

90-2-5 = test system: T15, 90-2-5
T15 sequence: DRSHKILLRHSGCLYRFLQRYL

99-1-1 = test system: T16, 99-1-1
T16 sequence: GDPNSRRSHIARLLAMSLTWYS

99-2-2 = test system: T17, 99-2-2
T17 sequence: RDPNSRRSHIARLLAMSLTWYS

Peptide 15 = test system: T18, Peptide 15
T18 sequence: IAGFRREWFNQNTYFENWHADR

Peptide 50 = test system: T19, Peptide 50
T19 sequence: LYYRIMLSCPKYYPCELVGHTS

Peptide 60 = test system: T20, Peptide 60
T20 sequence: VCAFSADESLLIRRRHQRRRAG

Peptide 61 = test system: T21, Peptide 61
T21 sequence: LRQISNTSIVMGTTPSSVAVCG

Peptide 63 = test system: T22, Peptide 63
T22 sequence: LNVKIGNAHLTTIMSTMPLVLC

Peptide 73 = test system: T23, Peptide 73
T23 sequence: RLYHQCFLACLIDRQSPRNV

Peptide 80 = test system: T24, Peptide 80
T24 sequence: TESIRSYFAMTIRRNH

Peptide 82 = test system: T25, Peptide 82
T25 sequence: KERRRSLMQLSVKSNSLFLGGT

Peptide 90 = test system: T26, Peptide 90
T26 sequence: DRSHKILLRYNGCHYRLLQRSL

Peptide 91 = test system: T27, Peptide 91
T27 sequence: VYDFYRMLSHFFLKGPSR

Peptide 99 = test system: T28, Peptide 99
T28 sequence: RRSHIAWLLAMSLTWYS

AcrIIA4
reduced editing (compared to plasmid control), A549 GFP reporter cells (SpyCas9 (S. pyogenes)): 74%

SpyCas9
decrease in cleavage-based fluorescence at 200 µM peptide, FRET assay (50-2-13): All of the MPs drastically reduced SpyCas9 substrate cleavage at 200 µM with a greater than 88% decrease in fluorescence | substrate cleavage, denaturing 15% urea PAGE, peptide 200 µM (50-2-13): 17 hits were identified that reduced fluorescence and substrate cleavage in the Cas9 cleavage reaction (visualized by Gel) at 200 µM | decrease in cleavage-based fluorescence at 200 µM peptide, FRET assay (50-2-16): All of the MPs drastically reduced SpyCas9 substrate cleavage at 200 µM with a greater than 88% decrease in fluorescence | substrate cleavage, denaturing 15% urea PAGE, peptide 200 µM (50-2-16): 17 hits were identified that reduced fluorescence and substrate cleavage in the Cas9 cleavage reaction (visualized by Gel) at 200 µM | decrease in cleavage-based fluorescence at 200 µM peptide, FRET assay (50-20-14): All of the MPs drastically reduced SpyCas9 substrate cleavage at 200 µM with a greater than 88% decrease in fluorescence | substrate cleavage, denaturing 15% urea PAGE, peptide 200 µM (50-20-14): 17 hits were identified that reduced fluorescence and substrate cleavage in the Cas9 cleavage reaction (visualized by Gel) at 200 µM | decrease in cleavage-based fluorescence at 200 µM peptide, FRET assay (60-1-10): All of the MPs drastically reduced SpyCas9 substrate cleavage at 200 µM with a greater than 88% decrease in fluorescence | substrate cleavage, denaturing 15% urea PAGE, peptide 200 µM (60-1-10): 17 hits were identified that reduced fluorescence and substrate cleavage in the Cas9 cleavage reaction (visualized by Gel) at 200 µM | decrease in cleavage-based fluorescence at 200 µM peptide, FRET assay (60-1-56): All of the MPs drastically reduced SpyCas9 substrate cleavage at 200 µM with a greater than 88% decrease in fluorescence | substrate cleavage, denaturing 15% urea PAGE, peptide 200 µM (60-1-56): 17 hits were identified that reduced fluorescence and substrate cleavage in the Cas9 cleavage reaction (visualized by Gel) at 200 µM | decrease in cleavage-based fluorescence at 200 µM peptide, FRET assay (63-2-27): All of the MPs drastically reduced SpyCas9 substrate cleavage at 200 µM with a greater than 88% decrease in fluorescence | substrate cleavage, denaturing 15% urea PAGE, peptide 200 µM (63-2-27): 17 hits were identified that reduced fluorescence and substrate cleavage in the Cas9 cleavage reaction (visualized by Gel) at 200 µM | decrease in cleavage-based fluorescence at 200 µM peptide, FRET assay (63-2-87): All of the MPs drastically reduced SpyCas9 substrate cleavage at 200 µM with a greater than 88% decrease in fluorescence | substrate cleavage, denaturing 15% urea PAGE, peptide 200 µM (63-2-87): 17 hits were identified that reduced fluorescence and substrate cleavage in the Cas9 cleavage reaction (visualized by Gel) at 200 µM | decrease in cleavage-based fluorescence at 200 µM peptide, FRET assay (82-2-12): All of the MPs drastically reduced SpyCas9 substrate cleavage at 200 µM with a greater than 88% decrease in fluorescence | substrate cleavage, denaturing 15% urea PAGE, peptide 200 µM (82-2-12): 17 hits were identified that reduced fluorescence and substrate cleavage in the Cas9 cleavage reaction (visualized by Gel) at 200 µM | decrease in cleavage-based fluorescence at 200 µM peptide, FRET assay (82-2-21): All of the MPs drastically reduced SpyCas9 substrate cleavage at 200 µM with a greater than 88% decrease in fluorescence | substrate cleavage, denaturing 15% urea PAGE, peptide 200 µM (82-2-21): 17 hits were identified that reduced fluorescence and substrate cleavage in the Cas9 cleavage reaction (visualized by Gel) at 200 µM | decrease in cleavage-based fluorescence at 200 µM peptide, FRET assay (82-2-28): All of the MPs drastically reduced SpyCas9 substrate cleavage at 200 µM with a greater than 88% decrease in fluorescence | substrate cleavage, denaturing 15% urea PAGE, peptide 200 µM (82-2-28): 17 hits were identified that reduced fluorescence and substrate cleavage in the Cas9 cleavage reaction (visualized by Gel) at 200 µM | decrease in cleavage-based fluorescence at 200 µM peptide, FRET assay (90-1-18): All of the MPs drastically reduced SpyCas9 substrate cleavage at 200 µM with a greater than 88% decrease in fluorescence | substrate cleavage, denaturing 15% urea PAGE, peptide 200 µM (90-1-18): 17 hits were identified that reduced fluorescence and substrate cleavage in the Cas9 cleavage reaction (visualized by Gel) at 200 µM | decrease in cleavage-based fluorescence at 200 µM peptide, FRET assay (90-1-27): All of the MPs drastically reduced SpyCas9 substrate cleavage at 200 µM with a greater than 88% decrease in fluorescence | substrate cleavage, denaturing 15% urea PAGE, peptide 200 µM (90-1-27): 17 hits were identified that reduced fluorescence and substrate cleavage in the Cas9 cleavage reaction (visualized by Gel) at 200 µM | decrease in cleavage-based fluorescence at 200 µM peptide, FRET assay (90-1-50): All of the MPs drastically reduced SpyCas9 substrate cleavage at 200 µM with a greater than 88% decrease in fluorescence | substrate cleavage, denaturing 15% urea PAGE, peptide 200 µM (90-1-50): 17 hits were identified that reduced fluorescence and substrate cleavage in the Cas9 cleavage reaction (visualized by Gel) at 200 µM | decrease in cleavage-based fluorescence at 200 µM peptide, FRET assay (90-2-18): All of the MPs drastically reduced SpyCas9 substrate cleavage at 200 µM with a greater than 88% decrease in fluorescence | substrate cleavage, denaturing 15% urea PAGE, peptide 200 µM (90-2-18): 17 hits were identified that reduced fluorescence and substrate cleavage in the Cas9 cleavage reaction (visualized by Gel) at 200 µM | decrease in cleavage-based fluorescence at 200 µM peptide, FRET assay (90-2-5): All of the MPs drastically reduced SpyCas9 substrate cleavage at 200 µM with a greater than 88% decrease in fluorescence | substrate cleavage, denaturing 15% urea PAGE, peptide 200 µM (90-2-5): 17 hits were identified that reduced fluorescence and substrate cleavage in the Cas9 cleavage reaction (visualized by Gel) at 200 µM | decrease in cleavage-based fluorescence at 200 µM peptide, FRET assay (99-1-1): All of the MPs drastically reduced SpyCas9 substrate cleavage at 200 µM with a greater than 88% decrease in fluorescence | substrate cleavage, denaturing 15% urea PAGE, peptide 200 µM (99-1-1): 17 hits were identified that reduced fluorescence and substrate cleavage in the Cas9 cleavage reaction (visualized by Gel) at 200 µM | decrease in cleavage-based fluorescence at 200 µM peptide, FRET assay (99-2-2): All of the MPs drastically reduced SpyCas9 substrate cleavage at 200 µM with a greater than 88% decrease in fluorescence | substrate cleavage, denaturing 15% urea PAGE, peptide 200 µM (99-2-2): 17 hits were identified that reduced fluorescence and substrate cleavage in the Cas9 cleavage reaction (visualized by Gel) at 200 µM | % activity, FRET cleavage assay (Peptide 15): Peptide15 significantly reduced activity of CjeCas9 and SpyCas9 and SauCas9 at 200 µM (P<0.01) | substrate cleavage, FRET assay, peptide 200 to 12.5 µM (Peptide 15): the peptides inhibited substrate cleavage in a peptide concentration-dependent manner | substrate cleavage, FRET assay, peptide 200 to 12.5 µM (Peptide 50): the peptides inhibited substrate cleavage in a peptide concentration-dependent manner | % activity, FRET cleavage assay (Peptide 60): Peptide 60, 90, and 91 significantly reduced activity of SauCas9 and SpyCas9 at 200 µM (P<0.005) | substrate cleavage, FRET assay, peptide 200 to 12.5 µM (Peptide 60): the peptides inhibited substrate cleavage in a peptide concentration-dependent manner | substrate cleavage, FRET assay, peptide 200 to 12.5 µM (Peptide 61): the peptides inhibited substrate cleavage in a peptide concentration-dependent manner | substrate cleavage, FRET assay, peptide 200 to 12.5 µM (Peptide 63): the peptides inhibited substrate cleavage in a peptide concentration-dependent manner | substrate cleavage, FRET assay, peptide 200 to 12.5 µM (Peptide 73): the peptides inhibited substrate cleavage in a peptide concentration-dependent manner | substrate cleavage, FRET assay, peptide 200 to 12.5 µM (Peptide 80): the peptides inhibited substrate cleavage in a peptide concentration-dependent manner | substrate cleavage, FRET assay, peptide 200 to 12.5 µM (Peptide 82): the peptides inhibited substrate cleavage in a peptide concentration-dependent manner | % activity, FRET cleavage assay (Peptide 90): Peptide 60, 90, and 91 significantly reduced activity of SauCas9 and SpyCas9 at 200 µM (P<0.005) | substrate cleavage, FRET assay, peptide 200 to 12.5 µM (Peptide 90): the peptides inhibited substrate cleavage in a peptide concentration-dependent manner | % activity, FRET cleavage assay (Peptide 91): Peptide 60, 90, and 91 significantly reduced activity of SauCas9 and SpyCas9 at 200 µM (P<0.005) | substrate cleavage, FRET assay, peptide 200 to 12.5 µM (Peptide 91): the peptides inhibited substrate cleavage in a peptide concentration-dependent manner | % activity, FRET cleavage assay (Peptide 99): Peptide 99 significantly reduced activity of all three Cas9 variants at 100 and 200 µM (P<0.005) | substrate cleavage, FRET assay, peptide 200 to 12.5 µM (Peptide 99): the peptides inhibited substrate cleavage in a peptide concentration-dependent manner
